Measurements as given in the RNAGym collection of RNA variant scans (doi:10.1073/pnas.2313332121).

B1: TPR t1 (parent)
chain: GACCAAUCUGCCCUCAGAGCUCGAGAACAUCUUCGGAUGCAGAGGAGGCAGGCUUCGGUGGCGCGAUAGCGCCAACGUCCUCAACCUCCAAUGCAUCCCACCACAUGAUGAUGCCUGAAGAGCCUUGGUUUUUUG

Variants of: B1
Test: polymerase ribozyme fitness, log enrichment relative to wild type (log ratio); higher = more active; in vitro selection for triplet polymerase activity
How it was run: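 Mutant libraries of both subunits of a heterodimeric triplet polymerase ribozyme were PCR-built, transcribed, and selected once in triplicate, with frozen incubation at −7 °C and capture of gel-excised extended constructs on streptavidin beads before RT-PCR. Illumina sequencing of input and output libraries was filtered to genotypes with ≥10 input reads and ≥1 read per output. Fitness is the logarithm of genotype enrichment over wild-type enrichment, using inverse-variance-weighted replicate averages. The logarithm is base 2.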

| Variant | polymerase ribozyme fitness (log ratio) |
| --- | --- |
| C22U G120A | -3.35 |
| C22U C28U C88G | -7.29 |
| C22U A50G C104U | -3.86 |
| C22A C31A C64G C97U C115A G127U U129G U130G | -6.15 |
| C22U C56A | -5.17 |
| C22U G42U G58A C70U | -5.05 |
| C22U U130G | -3.78 |
| U21C G69U C89U | -0.984 |
| C22A G52U A66U U112G | -5.88 |
| G23A A50U | -5.56 |
| C22U C64U G77A | -4.03 |
| U21G G63C U78A C115U A119U U130A | -5.59 |
| C22G G48C G77A C85G U112G | -3.5 |
| C22A G57U U106A A118G U133C | -3.51 |
| C22U G36A C76G | -5.14 |
| C22G U132A | -3.21 |
| C22G G39A C56U | -3.12 |
| C22G C53U C85U U112A | -3.51 |
| C22G A46U C76U C98U | -5.32 |
| U21G A26U C72A C104A G110U U125G | -7.09 |
| C22G G93C A103G G110U | -6.45 |

| Variant | polymerase ribozyme fitness (log ratio) |
| --- | --- |
| C22U C72G | -4.14 |
| C22U G45U | -4.99 |
| C22U G45A | -4.02 |
| C22G A26C C94A A95U A119G | -4.33 |
| C22U A46C G61A | -4.91 |
| C22G C76U G77C C124U U131G | -3.47 |
| C22U A95G | -3.7 |
| C22U C34U A83C C124G | -5.96 |
| U21C U59G C101A | -1.38 |
| C22A U87A | -4.86 |
| C22A U116C A121G U129C | -5.72 |
| C22G A27C U59A A95G | -3.9 |
| C22A U59A | -5.52 |
| U21G A37G A41U G113U | -2.41 |
| G23A G63C | -3.02 |
| C22G G23A C89U C114U | -4.41 |
| G23A C97U A121U | -4.57 |
| U21C U78C U96C C114A | -1.81 |
| U21G C56U U78G C86U A121G | -0.445 |
| C22A G44C A46U C101A A121C | -4.64 |
| U21G G48C G63A | -4.12 |

| Variant | polymerase ribozyme fitness (log ratio) |
| --- | --- |
| C22U U78A U106G G120C | -5.48 |
| C22G C64U U112G | -2.89 |
| C22G U106G | -3.47 |
| U21G G117A | -2.55 |
| C22G A50C A75G | -3.94 |
| C22U C53G | -4.85 |
| C22U C53A | -4.52 |
| C22G G69A A90U U106A A111U | -4.92 |
| G23A C123A | -4.67 |
| C22G G61C A68C C123U | -6.92 |
| C22U G57A G63U | -5.87 |
| C22G A41C G44C C79G A90C | -6.07 |
| C22A C40G G58C G60A | -4.83 |
| C22G G51A C72G | -4.82 |
| C22U A37U G69U U78C G110U C115A C124G | -3.86 |
| C22U U129A | -5.14 |
| C22A G36A U55C U96A A111U | -6.03 |
| C22G G61U C124A | -1.97 |
| C22A C31G G60U U96A | -6.4 |
| C22A C53G | -5 |
| C22G G45A C88G | -4.78 |

| Variant | polymerase ribozyme fitness (log ratio) |
| --- | --- |
| C22G C49A G117U | -3.11 |
| C22A G36U U55C G120A | -4.54 |
| U21G A37U C80A A121G | -3.51 |
| C22G G36C G42U A91U U112A U129G | -4.65 |
| C22G U32G C70G C124A | -5.41 |
| C22G G45U C56G A111U | -3.8 |
| G23A G117U | -7.76 |
| C22U G48C C53G C56A | -4.86 |
| C22A U55G | -4.85 |
| C22A U55C | -4.37 |
| C22G G57U U92C A100U C104A G113A | -7.69 |
| C22A G93U | -6.27 |
| U21G C70U G93A | -3.75 |
| C22U G45U G48C C102A C124G G128A | -6.17 |
| C22U G48U G71U C94A | -6.57 |
| U21G C64U G77A G93U | -3.27 |
| C22A A37U C53U C73G | -5.35 |
| C22G A103U | -4.6 |
| C22U C101A | -4.34 |
| C22G C53G G63C G113U | -5.64 |
